Reference: article doi:10.1101/641415

Key:
[1] = target: SiiA periplasmic domain (SiiA-PD) (S. Typhimurium); test: SEC
[2] = target: SiiA-R162A (S. Typhimurium); test: SEC
[3] = target: SeMet-labelled SiiA-PD (S. Typhimurium); test: crystal structure
[4] = target: periplasmic region of SiiA (ppr-SiiA, aa 40-210) (S. Typhimurium); test: SEC

Substance: SiiA periplasmic domain (SiiA-PD) (domain or fragment)
- stoichiometry N [1]: 2

Substance: SiiA-R162A (domain or fragment)
- stoichiometry N [2]: 2

Substance: SeMet-labelled SiiA-PD (domain or fragment)
- stoichiometry N [3]: 2

Substance: periplasmic region of SiiA (ppr-SiiA, aa 40-210) (domain or fragment)
- stoichiometry N [4]: 2
